This is an account of results in US20250215059A1.

A value given as a limit tells only on which side of the number the result lay.

Experiment [1] addresses tau aggregates in HEK293 tau biosensor cells (4R repeat domain of tau (K18) with the P301S mutation fused to CFP or YFP, seeded with clarified tau mouse brain homogenate) (UniProt P10636). Description: Halo (JF646) imaging; intensity in aggregate over adjacent region, 5 aggregates.
Experiment [2] has the same target. Description: Halo imaging, colocalization with cytoplasmic tau aggregates, 5 images.
For experiment [3] the target is unchanged. Description: Halo imaging, colocalization with cytoplasmic tau aggregates (FIG. 5D).
The target is the same in experiment [4]. The experiment can be described thus: Halo (JF646) imaging; intensity in aggregate over adjacent region, five aggregates.
For experiment [5] the target is unchanged. Description: Halo (JF646) imaging in seeded HEK293 tau biosensor cells; mean Halo intensity in aggregates over that of the compartment.

Sequence of tau aggregates in HEK293 tau biosensor cells (4R repeat domain of tau (K18) with the P301S mutation fused to CFP or YFP, seeded with clarified tau mouse brain homogenate) (P10636 561-689 P618S): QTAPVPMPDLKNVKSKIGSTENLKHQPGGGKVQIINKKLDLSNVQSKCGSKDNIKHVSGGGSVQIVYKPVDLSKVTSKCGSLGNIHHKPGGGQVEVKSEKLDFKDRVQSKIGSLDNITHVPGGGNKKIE

For the substance 42-polyserine-halo, in experiment [1], the mean enrichment in cytoplasmic tau aggregates was 5.46. In experiment [2], this substance returned a percentage of cytoplasmic tau aggregates positive for the construct of 96%. Besides, in experiment [3], the percentage of cytoplasmic tau aggregates with recruitment was above 90%.

Regarding Frag_1-Halo (SRRM2 a.a. 2606-2752), the mean enrichment in cytoplasmic tau aggregates in experiment [4] was 2.5.

As to Frag_2-Halo (SRRM2 a.a. 2458-2752), in experiment [2], the percentage of cytoplasmic tau aggregates positive for the construct was 98%. For the same substance, the percentage of cytoplasmic tau aggregates with recruitment in experiment [3] was above 90%. In experiment [4], this substance came in with a mean enrichment in cytoplasmic tau aggregates of 4.3.

As to Halo tagged 20 serine repeat, in experiment [1], the mean enrichment in cytoplasmic tau aggregates is 1.19.

In the case of “SRRM2_FL-Halo (from UniProt Q9UQ35 1-2748)”, the mean enrichment in tau aggregates in experiment [5] came out at 2.57. In experiment [2], the percentage of cytoplasmic tau aggregates positive for the construct turned out to be 62%.
